Experimental data from US20040248211A1, “ICAM-related protein” (priority 1992, published 2004).

Experiments:
Assay type in all cases: cell-based, human
[1] = test system: JY cells (LFA-1) binding to ICAM-R/IgG; assay: JY cell binding to plate-bound ICAM-R/IgG chimeras; conditions: chimera coated at 10 μg/ml
Description: The binding of the lymphoblastoid cell line JY, which expresses LFA-1, to wild type ICAM-R/IgG chimera was examined in the presence and absence of LFA-1 specific antibodies or antibodies specific for either domain 1 or 2 of ICAM-R. ICAM-R chimeras were diluted to 10 μg/ml in 0.1M Na-carbonate/bicarbonate buffer pH 9.6 and used to coat triplicate wells (50 μl/well) of an Immulon 4 96-well plate (Dynatech) overnight at 4° C. Wells were washed three times in PBS and blocked with 1% BSA (in PBS) for 1 hour at 37° C. JY cells were labeled with the fluorescent dye Calcein (Moleculat Probes, Eugene, Oreg.) at 8 μg/ml at 37° C. in serum free RPMI for 20 minutes. Cells were washed with RPMI and resuspended in binding buffer (0.2% HSA in RPMI. Approximately 1×10^5 cells were added to each well containing the binding buffer with or without antibody (20 μg/ml of ICR-2.1, ICR-1.1, ICR-3.1, ICR-5.1, ICR-7.1, ICR-8.1, ICR-4.2, ICR-6.2, ICR-9.2, TS1/22 or 60.3) so that the final volume was 0.35 ml. Plates were incubated at 37° C. in the dark for 45 minutes and input fluorescence was quantitated with a fluorescence reader (Millipore) in a 96-well format. Unbound cells were removed by inverting the plate in 0.1% BSA in PBS for 20 minutes. Bound cells were quantitated by measuring the remaining fluorescence and presented as percent input minus background binding to wells coated with BSA alone.

[2] = test system: Neutrophil binding to ICAM-R E37/A; assay: Neutrophil adhesion
Description: (§1) Binding of HL-60 cells, neutrophils, and COS cells expressing. CD11b to the chimeric proteins was assayed as follows. The chimeric fusion proteins were diluted to 20 μg/ml in 0.1 M Na-carbonate/bicarbonate buffer (pH 9.6) and 50 μl was used to coat each well (in triplicate) of an Immulon 4 96-well plate (Dynatech). The plates were incubated overnight at 4° C. and washed three times in PBS. Wells were blocked with 1% human serum albumin (HSA) for one hour at 37° C. and washed three times in PBS. Two hundred μl of RPMI+0.25% HSA (with/without phorbol ester at 10 ng/ml, with/without blocking mAb at 15 μg/ml) was added to each well. ICAM-R antibodies used were ICR-1.1, ICR-8.1, ICR-4.2, ICR-6.2, ICR-9.2, and ICR-19.3. […] The adherent cells were quantified by staining with crystal violet (1% solution in 10% ethanol), washing with water and eluting the dye with 66% ethanol in water and measuring the absorbance at 570 nm. In each experiment percent cells bound was calculated using the absorbency values obtained from the CD18 mAb coated well as 100%. […]
This motif in domain 1 of ICAM-1 is essential for CD11a but not CD11b binding. Consequently, the effect of the alanine substitution at ICAM-R E37 (E37/A) on CD11b binding was evaluated.

[3] = test system: Neutrophil binding to ICAM-R/His; assay: Neutrophil adhesion
Description: as §1, with “ICR-19.3. CD11a blocking antibody TS1/22 (ATCC HB202) and CD11b blocking antibodies 44AACB (ATCC HB249) and LM2/1 (ATCC HB204) were also used as well as monoclonal antibodies IC/A4.1 to CD49d (α4) and 22F12C to CD18, both of which were generated using standard hybridoma techniques.” for “ICR-19.3.”

[4] = test system: neutrophil binding to ICAM-2; assay: Neutrophil adhesion
Description: as §1, with “ICR-19.3. CD11a blocking antibody TS1/22 (ATCC HB202) and CD11b blocking antibodies 44AACB (ATCC HB249) and LM2/1 (ATCC HB204) were also used as well as monoclonal antibodies IC/A4.1 to CD49d (α4) and 22F12C to CD18, both of which were generated using standard hybridoma techniques.” for “ICR-19.3.”

B1: ICAM-R E37/A: ICAM-R/IgG chimera with alanine substitution at E37 (protein)
chain: QEFLLRVEPQNPVLSAGGSLFVNCSTDCPSSEKIALATSLSKELVASGMGWAAFNLSNVTGNSRILCSVYCNGSQITGSSNITVYGLPERVELAPLPPWQPVGQNFTLRCQVEGGSPRTSLTVVLLRWEEELSRQPAVEEPAEVTATVLASRDDHGAPFSCRTELDMQPQGLGLFVNTSAPRQLRTFVLPVTPPRLVAPRFLEVETSWPVDCTLDGLFPASEAQVYLALGDQMLNATVMNHGDTLTATATATARADQEGAREIVCNVTLGGERREARENLTVFSFLGPIVNLSEPTAHEGSTVTVSCMAGARVQVTLDGVPAAAPGQTAQLQLNATESDDGRSFFCSATLEVDGEFLHRNSSVQLRVLYGPKIDRATCPQHLKWKDKTRHVLQCQARGNPYPELRCLKEGSSREVPVGIPFFVNVTHNGTYQCQASSSRGKYTLVVVMDIEAFSSH
modifications: left off: a dimerising Fc or GST
For B1, the “LFA-1 mediated JY cell adhesion to variant ICAM-R/IgG chimera” value [1] was “completely abrogated adhesion of JY cells” and the “neutrophil binding relative to wild type ICAM-R” value [2] was “binding was reduced relative to wild type ICAM-R”.

B2: ICAM-R/His: histidine-tagged ICAM-R extracellular region fusion protein (protein)
chain: QEFLLRVEPQNPVLSAGGSLFVNCSTDCPSSEKIALETSLSKELVASGMGWAAFNLSNVTGNSRILCSVYCNGSQITGSSNITVYGLPERVELAPLPPWQPVGQNFTLRCQVEGGSPRTSLTVVLLRWEEELSRQPAVEEPAEVTATVLASRDDHGAPFSCRTELDMQPQGLGLFVNTSAPRQLRTFVLPVTPPRLVAPRFLEVETSWPVDCTLDGLFPASEAQVYLALGDQMLNATVMNHGDTLTATATATARADQEGAREIVCNVTLGGERREARENLTVFSFLGPIVNLSEPTAHEGSTVTVSCMAGARVQVTLDGVPAAAPGQTAQLQLNATESDDGRSFFCSATLEVDGEFLHRNSSVQLRVLYGPKIDRATCPQHLKWKDKTRHVLQCQARGNPYPELRCLKEGSSREVPVGIPFFVNVTHNGTYQCQASSSRGKYTLVVVMDIEAFSSH
modifications: left off: small tags and cut ends
notes: histidine-tagged ICAM-R extracellular region fusion protein
B2 was tested, and the “neutrophil adhesion to immobilized protein” value [3] was “Neutrophils adhered to immobilized ICAM-R/His”.

B3: ICAM-2: chimeric ICAM-2/IgG fusion protein (protein)
chain: KVFEVHVRPKKLAVEPKGSLEVNCSTTCNQPEVGGLETSLDKILLDEQAQWKHYLVSNISHDTVLQCHFTCSGKQESMNSNVSVYQPPRQVILTLQPTLVAVGKSFTIECRVPTVEPLDSLTLFLFRGNETLHYETFGKAAPAPQEATATFNSTADREDGHRNFSCLAVLDLMSRGGNIFHKHSAPKMLEIYEPVSDSQ
modifications: left off: a dimerising Fc or GST
notes: chimeric ICAM-2/IgG fusion protein
For B3, the “neutrophil binding relative to ICAM-1” value [4] was “approximately 70%”.
